One substance from PMC11220700, “Activation and Purification of ß‐Glucocerebrosidase by Exploiting its Transporter LIMP‐2 – Implications for Novel Treatment Strategies in Gaucher's and Parkinson's Disease” (Advanced Science, 2024) can be followed below.

The experiment concerns the target imiglucerase/Cerezyme (recombinant GCase, Sanofi Genzyme) (Homo sapiens) (UniProt P04062). The experiment in a line: MST. The settings on record: Fc fusion.

imiglucerase/Cerezyme (recombinant GCase, Sanofi Genzyme) (Homo sapiens), sequence (P04062 other isoform, or with tags, fused parts or gaps): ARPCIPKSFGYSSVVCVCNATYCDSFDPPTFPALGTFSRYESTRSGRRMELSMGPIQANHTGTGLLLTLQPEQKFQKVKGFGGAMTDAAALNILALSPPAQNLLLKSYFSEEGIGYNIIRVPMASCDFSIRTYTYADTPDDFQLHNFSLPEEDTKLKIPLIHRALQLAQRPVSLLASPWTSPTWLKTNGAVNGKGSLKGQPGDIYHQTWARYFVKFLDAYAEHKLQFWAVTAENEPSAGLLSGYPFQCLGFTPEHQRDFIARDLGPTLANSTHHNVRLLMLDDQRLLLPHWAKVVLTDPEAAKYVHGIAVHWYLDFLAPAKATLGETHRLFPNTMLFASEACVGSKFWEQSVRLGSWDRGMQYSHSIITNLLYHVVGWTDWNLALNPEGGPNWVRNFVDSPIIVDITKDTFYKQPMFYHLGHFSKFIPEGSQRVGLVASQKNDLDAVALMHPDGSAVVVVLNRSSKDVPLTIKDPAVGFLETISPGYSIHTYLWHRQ
sLIMP‐2‐FC (Sino Biological #11063‐H03H), sequence (Q14108 27-432): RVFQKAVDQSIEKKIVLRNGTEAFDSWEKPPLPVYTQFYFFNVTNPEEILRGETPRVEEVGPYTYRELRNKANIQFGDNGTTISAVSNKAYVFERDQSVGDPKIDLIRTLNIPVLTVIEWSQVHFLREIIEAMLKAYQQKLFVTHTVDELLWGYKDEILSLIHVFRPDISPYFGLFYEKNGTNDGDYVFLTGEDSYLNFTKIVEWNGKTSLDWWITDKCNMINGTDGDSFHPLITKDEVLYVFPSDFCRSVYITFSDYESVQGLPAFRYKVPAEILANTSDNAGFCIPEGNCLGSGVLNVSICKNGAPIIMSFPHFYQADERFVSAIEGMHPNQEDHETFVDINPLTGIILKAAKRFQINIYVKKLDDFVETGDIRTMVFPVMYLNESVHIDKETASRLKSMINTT

As for “sLIMP‐2‐FC (Sino Biological #11063‐H03H)”, the Kd was 1380 nM.
